{"source": "paper PMC12326988", "about": "“Synthetic host defense peptide inhibits SARS-CoV-2 replication in vitro” (Antimicrobial Agents and Chemotherapy, 2025)", "molecular_target": "binding between SARS-CoV-2 Wuhan RBD-Fc and hACE2-AP (UniProt P0DTC2+Q9BYF1)", "sequence (Q9BYF1 18-740, one chain of several)": "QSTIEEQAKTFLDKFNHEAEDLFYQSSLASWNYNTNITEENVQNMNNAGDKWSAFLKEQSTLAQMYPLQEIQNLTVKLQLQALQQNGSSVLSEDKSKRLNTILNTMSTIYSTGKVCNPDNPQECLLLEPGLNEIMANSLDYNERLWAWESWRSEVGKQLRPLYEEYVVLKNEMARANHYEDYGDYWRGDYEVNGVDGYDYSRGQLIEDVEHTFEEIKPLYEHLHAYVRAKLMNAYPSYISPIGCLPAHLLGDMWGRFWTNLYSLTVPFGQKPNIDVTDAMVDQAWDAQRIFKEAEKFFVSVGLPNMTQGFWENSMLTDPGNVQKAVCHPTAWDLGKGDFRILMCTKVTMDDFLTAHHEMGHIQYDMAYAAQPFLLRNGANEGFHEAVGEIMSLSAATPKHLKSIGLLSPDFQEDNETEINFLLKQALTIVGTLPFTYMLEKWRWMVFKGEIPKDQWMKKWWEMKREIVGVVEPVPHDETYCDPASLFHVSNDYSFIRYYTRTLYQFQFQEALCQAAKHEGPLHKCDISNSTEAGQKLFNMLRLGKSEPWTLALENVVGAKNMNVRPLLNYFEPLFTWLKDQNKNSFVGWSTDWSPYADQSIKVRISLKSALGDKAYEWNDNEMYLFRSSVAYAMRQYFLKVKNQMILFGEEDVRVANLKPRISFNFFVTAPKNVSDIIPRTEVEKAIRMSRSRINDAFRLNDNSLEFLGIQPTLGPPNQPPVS", "parameters": "species or system SARS-CoV-2; human"}
{"substance": "shACE2", "values": [{"measurement": "IC50, inhibition of hACE2-AP to RBD-Fc interaction", "result": 1.42, "unit": "mg/L"}]}
